According to IntAct's records for PubMed 31515488:

B1: Cyclic AMP-responsive element-binding protein 3-like protein 1 (Homo sapiens), Q96BA8 (parent)
chain: MDAVLEPFPADRLFPGSSFLDLGDLNESDFLNNAHFPEHLDHFTENMEDFSNDLFSSFFDDPVLDEKSPLLDMELDSPTPGIQAEHSYSLSGDSAPQSPLVPIKMEDTTQDAEHGAWALGHKLCSIMVKQEQSPELPVDPLAAPSAMAAAAAMATTPLLGLSPLSRLPIPHQAPGEMTQLPVIKAEPLEVNQFLKVTPEDLVQMPPTPPSSHGSDSDGSQSPRSLPPSSPVRPMARSSTAISTSPLLTAPHKLQGTSGPLLLTEEEKRTLIAEGYPIPTKLPLTKAEEKALKRVRRKIKNKISAQESRRKKKEYVECLEKKVETFTSENNELWKKVETLENANRTLLQQLQKLQTLVTNKISRPYKMAATQTGTCLMVAALCFVLVLGSLVPCLPEFSSGSQTVKEDPLAADGVYTASQMPSRSLLFYDDGAGLWEDGRSTLLPMEPPDGWEINPGGPAEQRPRDHLQHDHLDSTHETTKYLSEAWPKDGGNGTSPDFSHSKEWFHDRDLGPNTTIKLS
B2: Pre-B-cell leukemia transcription factor-interacting protein 1 (Homo sapiens), Q96AQ6 (parent)
chain: MASCPDSDNSWVLAGSESLPVETLGPASRMDPESERALQAPHSPSKTDGKELAGTMDGEGTLFQTESPQSGSILTEETEVKGTLEGDVCGVEPPGPGDTVVQGDLQETTVVTGLGPDTQDLEGQSPPQSLPSTPKAAWIREEGRCSSSDDDTDVDMEGLRRRRGREAGPPQPMVPLAVENQAGGEGAGGELGISLNMCLLGALVLLGLGVLLFSGGLSESETGPMEEVERQVLPDPEVLEAVGDRQDGLREQLQAPVPPDSVPSLQNMGLLLDKLAKENQDIRLLQAQLQAQKEELQSLMHQPKGLEEENAQLRGALQQGEAFQRALESELQQLRARLQGLEADCVRGPDGVCLSGGRGPQGDKAIREQGPREQEPELSFLKQKEQLEAEAQALRQELERQRRLLGSVQQDLERSLQDASRGDPAHAGLAELGHRLAQKLQGLENWGQDPGVSANASKAWHQKSHFQNSREWSGKEKWWDGQRDRKAEHWKHKKEESGRERKKNWGGQEDREPAGRWKEGRPRVEESGSKKEGKRQGPKEPPRKSGSFHSSGEKQKQPRWREGTKDSHDPLPSWAELLRPKYRAPQGCSGVDECARQEGLTFFGTELAPVRQQELASLLRTYLARLPWAGQLTKELPLSPAFFGEDGIFRHDRLRFRDFVDALEDSLEEVAVQQTGDDDEVDDFEDFIFSHFFGDKALKKRSGKKDKHSQSPRAAGPREGHSHSHHHHHRG
B3: U3 small nucleolar RNA-associated protein 14 homolog C (Homo sapiens), Q5TAP6 (parent)
chain: MNVNQVAENLALSHQEELVDLPKNYPLSENEDEGDSDGERKHQKLLEAIISLDGKNRRKLAERSEASLKVSEFSVSSEGSGEKLGLADLLEPVKTSSSLATVKKQLNRVKSKKVVELPLNKEKIEQIHREVAFSKTSQVLSKWDPIILKNQQAEQLVFPLGKEQPAIAPIEHALSGWKARTPLEQEIFNLLHKNKQPVTDPLLTPMEKASLQAMSLEEAKMHRAELQRARALQSYYEAKARKEKKIKSKKYHKVVKKGKAKKALKEFEQLQKVNPTVALEEMEKIENARMMERMSLKHQNSGKWAKSKAIMAKYDLEARQAMQEQLAKNKELTQKLQVASESEEEEGGTEVEELLVPHVANEVQMNVDGPNPWMFRSCTSDTKEAATQEDPEQVPELAAHEVSASEAEERPVAEEEILLREFEERQSLRKRSELNQDAEPASSQETKDSSSQEVLSELRALSQKLKEKHQSRKQKASSEGTVPQVQREEPAPEEAEPLLLQRSERVQTLEELEELGKEDCFQNKELPRPVLEGQQSERTPNNRPDAPKEKKEKEQLINLQNFLTTQSPSVRSLAVPTIIEELEDEEERDQRQMIKEAFAGDDVIRDFLKEKREAVEASKPKDVDLTLPGWGEWGGVGLKPSAKKRRQFLIKAPEGPPRKDKNLPNVIISEKRNIHAAAHQVQVLPYPFTHHRQFERTIQTPIGSTWNTQRAFQKLTTPKVVTKPGHIIKPIKAEDVGYQSSSRSDLPVIQRNPKRITTRHNKEEKL
partner: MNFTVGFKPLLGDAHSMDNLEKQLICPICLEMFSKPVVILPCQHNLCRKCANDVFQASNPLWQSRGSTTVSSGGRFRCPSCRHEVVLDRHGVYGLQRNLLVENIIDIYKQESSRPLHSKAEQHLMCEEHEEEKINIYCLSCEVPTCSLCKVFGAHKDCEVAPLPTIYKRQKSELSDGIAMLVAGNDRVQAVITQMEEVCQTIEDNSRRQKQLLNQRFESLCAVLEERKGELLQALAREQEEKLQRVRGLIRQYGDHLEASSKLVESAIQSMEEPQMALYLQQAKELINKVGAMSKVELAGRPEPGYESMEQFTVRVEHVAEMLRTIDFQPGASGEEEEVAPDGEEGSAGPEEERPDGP
B4: Septin-12 (Homo sapiens), Q8IYM1 (parent)
chain: MDPLRRSPSPCLSSQPSSPSTPPCEMLGPVGIEAVLDQLKIKAMKMGFEFNIMVVGQSGLGKSTMVNTLFKSKVWKSNPPGLGVPTPQTLQLHSLTHVIEEKGVKLKLTVTDTPGFGDQINNDNCWDPILGYINEQYEQYLQEEILITRQRHIPDTRVHCCVYFVPPTGHCLRPLDIEFLQRLCRTVNVVPVIARADSLTMEEREAFRRRIQQNLRTHCIDVYPQMCFDEDINDKILNSKLRDRIPFAVVGADQEHLVNGRCVLGRKTKWGIIEVENMAHCEFPLLRDLLIRSHLQDLKDITHNIHYENYRVIRLNESHLLPRGPGWVNLAPASPGQLTTPRTFKVCRGAHDDSDDEF
partner: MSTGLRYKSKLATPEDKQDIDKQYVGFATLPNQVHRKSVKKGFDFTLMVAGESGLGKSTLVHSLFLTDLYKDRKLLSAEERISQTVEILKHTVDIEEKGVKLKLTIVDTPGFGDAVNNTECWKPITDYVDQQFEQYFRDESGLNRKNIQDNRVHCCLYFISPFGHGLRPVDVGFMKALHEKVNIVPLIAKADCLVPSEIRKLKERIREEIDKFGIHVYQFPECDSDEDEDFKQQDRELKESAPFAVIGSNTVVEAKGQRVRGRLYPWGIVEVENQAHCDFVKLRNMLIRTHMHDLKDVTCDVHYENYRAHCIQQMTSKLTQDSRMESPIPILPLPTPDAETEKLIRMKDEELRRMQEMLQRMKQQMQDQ
B5: RUN and FYVE domain-containing protein 1 (Homo sapiens), Q96T51-2 (parent)
chain: MMEERANLMHMMKLSIKVLLQSALSLGRSLDADHAPLQQFFVVMEHCLKHGLKVKKSFIGQNKSFFGPLELVEKLCPEASDIATSVRNLPELKTAVGRGRAWLYLALMQKKLADYLKVLIDNKHLLSEFYEPEALMMEEEGMVIVGLLVGLNVLDANLCLKGEDLDSQVGVIDFSLYLKDVQDLDGGKEHERITDVLDQKNYVEELNRHLSCTVGDLQTKIDGLEKTNSKLQEELSAATDRICSLQEEQQQLREQNELIRERSEKSVEITKQDTKVELETYKQTRQGLDEMYSDVWKQLKEEKKVRLELEKELELQIGMKTEMEIAMKLLEKDTHEKQDTLVALRQQLEEVKAINLQMFHKAQNAESSLQQKNEAITSFEGKTNQVMSSMKQMEERLQHSERARQGAEERSHKLQQELGGRIGALQLQLSQLHEQCSSLEKELKSEKEQRQALQRELQHEKDTSSLLRMELQQVEGLKKELRELQDEKAELQKICEEQEQALQEMGLHLSQSKLKMEDIKEVNQALKGHAWLKDDEATHCRQCEKEFSISRRKHHCRNCGHIFCNTCSSNELALPSYPKPVRVCDSCHTLLLQRCSSTAS
partner: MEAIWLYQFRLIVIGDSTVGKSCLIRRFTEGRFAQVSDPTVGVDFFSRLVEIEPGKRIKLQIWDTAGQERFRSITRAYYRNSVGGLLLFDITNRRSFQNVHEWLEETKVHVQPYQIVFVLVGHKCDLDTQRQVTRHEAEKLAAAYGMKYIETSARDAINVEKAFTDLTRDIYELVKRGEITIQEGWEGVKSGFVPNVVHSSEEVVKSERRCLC
B6: U2 small nuclear ribonucleoprotein A' (Homo sapiens), P09661 (parent)
chain: MVKLTAELIEQAAQYTNAVRDRELDLRGYKIPVIENLGATLDQFDAIDFSDNEIRKLDGFPLLRRLKTLLVNNNRICRIGEGLDQALPCLTELILTNNSLVELGDLDPLASLKSLTYLSILRNPVTNKKHYRLYVIYKVPQVRVLDFQKVKLKERQEAEKMFKGKRGAQLAKDIARRSKTFNPGAGLPTDKKKGGPSPGDVEAIKNAIANASTLAEVERLKGLLQSGQIPGRERRSGPTDDGEEEMEEDTVTNGS

Variants of: B1
Details: with gpr25_human GPR25, O00155
Chain of gpr25_human GPR25, O00155 (O00155 whole entry): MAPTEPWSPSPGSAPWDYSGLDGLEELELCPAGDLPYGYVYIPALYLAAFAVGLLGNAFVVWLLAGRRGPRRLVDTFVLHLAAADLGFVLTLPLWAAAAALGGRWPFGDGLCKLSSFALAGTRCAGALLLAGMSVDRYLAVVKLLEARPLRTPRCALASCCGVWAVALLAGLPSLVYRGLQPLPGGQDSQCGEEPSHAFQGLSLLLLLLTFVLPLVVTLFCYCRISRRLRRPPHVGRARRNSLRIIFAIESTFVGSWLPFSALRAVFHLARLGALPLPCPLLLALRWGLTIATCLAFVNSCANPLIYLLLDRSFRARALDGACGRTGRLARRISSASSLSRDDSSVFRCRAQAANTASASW

effect of a mutation on the interaction | Variant
with no effect | I516S

Variants of: B1
Details: with tm147_human TMEM147, Q9BVK8
Chain of tm147_human TMEM147, Q9BVK8 (Q9BVK8 whole entry): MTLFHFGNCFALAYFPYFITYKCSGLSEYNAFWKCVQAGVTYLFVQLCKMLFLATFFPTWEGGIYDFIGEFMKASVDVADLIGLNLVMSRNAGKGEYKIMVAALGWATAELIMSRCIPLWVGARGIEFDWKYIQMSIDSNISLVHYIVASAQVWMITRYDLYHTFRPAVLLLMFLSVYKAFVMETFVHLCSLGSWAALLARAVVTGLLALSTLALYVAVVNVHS

effect of a mutation on the interaction | Variant
with no effect | I516S

Variants of: B2
Details: with mdfi_human MDFI

effect of a mutation on the interaction | Variant
with no effect | G357D

Variants of: B2
Details: with sgta_human SGTA

effect of a mutation on the interaction | Variant
with no effect | R499Q

Variants of: B3
Details: with tri54_human TRIM54, Q9BYV2

effect of a mutation on the interaction | Variant
with no effect | V570M
with no effect | A652T
with no effect | R672H

Second part, the variant before the results:

Variant | effect of a mutation on the interaction
K247E | with no effect
T101A | disrupting interaction strength
I170V | with no effect
V109D | with no effect

Variants of: B4
Details: with sept5_human SEPTIN5, Q99719

effect of a mutation on the interaction | Variant
disrupting interaction strength | V263D
with no effect | R311C

Continued, variant first:

Variant | effect of a mutation on the interaction
Q213R | disrupting interaction strength
G169E | disrupting interaction strength
T111K | disrupting interaction strength
C184S | with no effect
R204Q | disrupting interaction strength
D197N | disrupting interaction strength
K73N | with no effect
V162M | disrupting interaction strength

Variants of: B5
Details: with rb39b_human RAB39B

effect of a mutation on the interaction | Variant
with no effect | C159F

Variants of: B6
Details: with ru2b_human SNRPB2, P08579
Chain of ru2b_human SNRPB2, P08579 (P08579 whole entry): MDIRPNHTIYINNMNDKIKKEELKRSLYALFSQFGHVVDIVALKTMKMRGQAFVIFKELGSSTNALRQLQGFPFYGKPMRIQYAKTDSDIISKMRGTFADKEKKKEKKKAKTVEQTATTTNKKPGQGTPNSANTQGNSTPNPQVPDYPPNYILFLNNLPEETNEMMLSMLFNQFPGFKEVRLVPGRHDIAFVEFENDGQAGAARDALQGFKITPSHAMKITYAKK

effect of a mutation on the interaction | Variant
with no effect | S99N
